From the RNAGym collection of RNA variant scans (doi:10.7554/elife.80360)

B1: Hairpin Ribozyme (parent)
chain: GUCCUCUUUCACGUGCGCGUGAAAGAGAGAAGUGAACCAGAGAAACACACGUUGUGGUAUAUUACCUGGUA

Variants of: B1
Test: self-cleavage, relative activity (ratio to wild type); higher = more cleavage; co-transcriptional

Q: Which self-cleavage does the source give for U20C G21U here?
A: Its self-cleavage is 0.652.

Q: Which self-cleavage does the source give for U20C G21A here?
A: Its self-cleavage is 0.686.

Q: With A22C A43C as the variant, how does the self-cleavage read?
A: Its self-cleavage is 0.061.

Q: With U20C A39G as the variant, how does the self-cleavage read?
A: Its self-cleavage is 0.311.

Q: With U20C A39U as the variant, how does the self-cleavage read?
A: The self-cleavage was 0.315.

Q: Which self-cleavage does the source give for U20A A61U here?
A: Its self-cleavage is 0.238.

Q: Which self-cleavage does the source give for U20A A61G here?
A: Its self-cleavage is 0.11.

Q: Which self-cleavage does the source give for G21A U58G here?
A: The self-cleavage was 0.554.

Q: With U20G C37G as the variant, how does the self-cleavage read?
A: Its self-cleavage is 0.395.

Q: Which self-cleavage does the source give for U20G C37U here?
A: Its self-cleavage is 0.594.

Q: For G21A U63A, which self-cleavage is on record?
A: The self-cleavage was 0.14.

Q: For A22C A64G, which self-cleavage is on record?
A: Its self-cleavage is 0.467.

Q: With U20G A39C as the variant, how does the self-cleavage read?
A: Its self-cleavage is 0.461.

Q: With U20A C48A as the variant, how does the self-cleavage read?
A: The self-cleavage was 0.23.

Q: For U20A C48G, which self-cleavage is on record?
A: Its self-cleavage is 0.219.

Q: With U20A G29U as the variant, how does the self-cleavage read?
A: Its self-cleavage is 0.165.

Q: For U20A G29C, which self-cleavage is on record?
A: Its self-cleavage is 0.203.

Q: With U20A G69U as the variant, how does the self-cleavage read?
A: The self-cleavage was 0.252.

Q: For U20A G69C, which self-cleavage is on record?
A: Its self-cleavage is 0.268.

Q: With U20A C65A as the variant, how does the self-cleavage read?
A: The self-cleavage was 0.857.

Q: For U20A C65G, which self-cleavage is on record?
A: Its self-cleavage is 0.182.

Q: For G21A A43C, which self-cleavage is on record?
A: The self-cleavage was 0.153.

Q: For G21A A43U, which self-cleavage is on record?
A: The self-cleavage was 0.123.

Q: For G21C G57A, which self-cleavage is on record?
A: The self-cleavage was 0.16.

Q: With G21A G54U as the variant, how does the self-cleavage read?
A: The self-cleavage was 0.372.

Q: For U20A A30G, which self-cleavage is on record?
A: The self-cleavage was 0.184.

Q: For G21C A39G, which self-cleavage is on record?
A: Its self-cleavage is 0.225.

Q: With G21C A39U as the variant, how does the self-cleavage read?
A: The self-cleavage was 0.46.

Q: For G21C A71G, which self-cleavage is on record?
A: Its self-cleavage is 0.818.

Q: Which self-cleavage does the source give for U20C A35G here?
A: The self-cleavage was 0.71.

Q: With G21A G29C as the variant, how does the self-cleavage read?
A: Its self-cleavage is 0.168.

Q: Which self-cleavage does the source give for G21C C65A here?
A: Its self-cleavage is 0.777.

Q: Which self-cleavage does the source give for U20A U67A here?
A: The self-cleavage was 0.217.

Q: Which self-cleavage does the source give for G19U U63C here?
A: The self-cleavage was 0.164.

Q: For U20C A24U, which self-cleavage is on record?
A: Its self-cleavage is 0.503.

Q: Which self-cleavage does the source give for G21U G51C here?
A: The self-cleavage was 0.859.

Q: With G21A A30C as the variant, how does the self-cleavage read?
A: Its self-cleavage is 0.128.

Q: Which self-cleavage does the source give for U20C U62A here?
A: The self-cleavage was 0.202.

Q: For U20C U62G, which self-cleavage is on record?
A: Its self-cleavage is 0.116.

Q: For U20C G68C, which self-cleavage is on record?
A: The self-cleavage was 0.219.

Q: Which self-cleavage does the source give for U20C G68U here?
A: The self-cleavage was 0.257.

Q: Which self-cleavage does the source give for U20G G21U here?
A: Its self-cleavage is 0.754.

Q: With U20G G57A as the variant, how does the self-cleavage read?
A: Its self-cleavage is 0.195.

Q: For U20A U60A, which self-cleavage is on record?
A: Its self-cleavage is 0.607.

Q: Which self-cleavage does the source give for U20A U58G here?
A: Its self-cleavage is 0.762.

Q: With U20A U58A as the variant, how does the self-cleavage read?
A: Its self-cleavage is 0.709.

Q: Which self-cleavage does the source give for G21C A41C here?
A: The self-cleavage was 0.957.

Q: With G21C A41U as the variant, how does the self-cleavage read?
A: The self-cleavage was 1.16.

Q: For G21A C37A, which self-cleavage is on record?
A: Its self-cleavage is 0.269.

Q: For G21A C37U, which self-cleavage is on record?
A: The self-cleavage was 0.538.

Q: Which self-cleavage does the source give for G21A C37G here?
A: The self-cleavage was 0.344.

Q: With G21C A36U as the variant, how does the self-cleavage read?
A: The self-cleavage was 0.566.

Q: For G21C A36C, which self-cleavage is on record?
A: The self-cleavage was 0.534.

Q: Which self-cleavage does the source give for U20A A44G here?
A: Its self-cleavage is 0.112.

Q: With U20A A44U as the variant, how does the self-cleavage read?
A: Its self-cleavage is 0.177.

Q: Which self-cleavage does the source give for A22C A23G here?
A: Its self-cleavage is 0.779.

Q: For A22C A23C, which self-cleavage is on record?
A: Its self-cleavage is 0.947.

Q: With A22C A23U as the variant, how does the self-cleavage read?
A: The self-cleavage was 0.932.

Q: For G21A U62G, which self-cleavage is on record?
A: Its self-cleavage is 0.163.

Q: Which self-cleavage does the source give for G21U U55C here?
A: Its self-cleavage is 0.288.

Q: Which self-cleavage does the source give for G21U U55A here?
A: Its self-cleavage is 0.227.

Q: With G21A A28G as the variant, how does the self-cleavage read?
A: The self-cleavage was 0.979.

Q: With G21A A28C as the variant, how does the self-cleavage read?
A: The self-cleavage was 0.472.

Q: Which self-cleavage does the source give for U20C U55C here?
A: Its self-cleavage is 0.159.

Q: With U20C U55G as the variant, how does the self-cleavage read?
A: The self-cleavage was 0.426.

Q: Which self-cleavage does the source give for U20C G54C here?
A: Its self-cleavage is 0.373.

Q: With U20A A47C as the variant, how does the self-cleavage read?
A: Its self-cleavage is 0.293.

Q: Which self-cleavage does the source give for U20G C38A here?
A: The self-cleavage was 0.184.

Q: For U20G C38U, which self-cleavage is on record?
A: The self-cleavage was 0.542.

Q: Which self-cleavage does the source give for G21A G34A here?
A: The self-cleavage was 0.968.

Q: For G21C A59C, which self-cleavage is on record?
A: The self-cleavage was 0.238.

Q: For A22C A30C, which self-cleavage is on record?
A: The self-cleavage was 0.16.

Q: With G21A G56A as the variant, how does the self-cleavage read?
A: The self-cleavage was 0.19.

Q: Which self-cleavage does the source give for G21A G56U here?
A: Its self-cleavage is 0.185.

Q: With G21A G25U as the variant, how does the self-cleavage read?
A: Its self-cleavage is 0.426.

Q: For G21A A39C, which self-cleavage is on record?
A: The self-cleavage was 0.467.

Q: Which self-cleavage does the source give for G21A A39U here?
A: Its self-cleavage is 0.346.

Q: For U20C C46G, which self-cleavage is on record?
A: Its self-cleavage is 0.117.

Q: For U20C A22U, which self-cleavage is on record?
A: The self-cleavage was 0.602.

Q: Which self-cleavage does the source give for U20C A26G here?
A: The self-cleavage was 1.06.

Q: With G21U A64G as the variant, how does the self-cleavage read?
A: Its self-cleavage is 0.573.

Q: Which self-cleavage does the source give for G21U A64U here?
A: The self-cleavage was 0.113.

Q: With U20A A31U as the variant, how does the self-cleavage read?
A: Its self-cleavage is 0.148.

Q: For G21C U67A, which self-cleavage is on record?
A: The self-cleavage was 0.212.
